Results as given in paper PMC9403556 (STAR Protocols, 2022).

Biological target: T1, human eIF5-mimic protein 1 (h5MP1), wild type, untagged (human, UniProt Q9Y6E2 1-419)
T1 sequence (looked up): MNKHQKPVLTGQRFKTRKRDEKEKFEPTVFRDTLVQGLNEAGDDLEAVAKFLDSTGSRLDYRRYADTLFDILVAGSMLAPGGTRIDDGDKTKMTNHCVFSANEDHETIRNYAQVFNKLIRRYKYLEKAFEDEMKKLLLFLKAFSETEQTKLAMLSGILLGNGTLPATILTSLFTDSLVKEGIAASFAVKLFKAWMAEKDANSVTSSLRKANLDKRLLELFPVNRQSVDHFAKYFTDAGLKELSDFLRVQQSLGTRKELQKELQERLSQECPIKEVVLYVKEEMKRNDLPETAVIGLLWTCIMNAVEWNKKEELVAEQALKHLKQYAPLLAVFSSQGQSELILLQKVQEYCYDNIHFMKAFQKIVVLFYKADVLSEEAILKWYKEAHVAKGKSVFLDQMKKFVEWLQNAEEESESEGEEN
Assay: ITC

B1: heIF2β_(53-136), GB1- and His-tags removed (domain or fragment, human, UniProt P20042 53-136, looked up)
chain: DLEADEEDTRKKDASDDLDDLNFFNQKKKKKKTKKIFDIDEAEEGVKDLKIESDVQEPTEPEDDLDIMLGNKKKKKKNVKFPDE
Kd: 5 µM
